Biological target: HLA-A*02:01 (Homo sapiens, UniProt P04439, D140Y/D185E/D98H/E176V/E277Q/G131W/G231S/I119V/I121R/I166T/I218V/L300P/L318F/N151K/N90K/P208A/P217A/Q86G/Q94H/R138H/R169H/T345S)
Assay: MHC binding assay (UV-ligand exchange, β2m ELISA, peptide exchange yield)
Settings: MHC class I binding score; binding to HLA-A*02:01 ranged by peptide exchange yield (UV-ligand exchange, β2m ELISA)
How it was run: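 Binding is expressed as peptide exchange yield: stabilized MHC complexes were quantified by β2m ELISA, with a 450 nm TMB read-out on streptavidin-coated plates. Complexes came from UV-ligand exchange, where UV irradiation cleaves a photolabile peptide so the candidate peptide can load.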

Substance | Peptide exchange
376 (AMFESSQNVLL; listed as Homo sapiens) [compound 376] | ″++″ (≧20% = ++)
117 (ILPDGEDFLAV; listed as Homo sapiens) [compound 117] | ″+++″ (≧50% = +++)
130 (FLWNGEDSALL; listed as Homo sapiens) [compound 130] | ″+++″ (≧50% = +++)
335 (YSLSSVVTV; listed as Homo sapiens) [compound 335] | ″+++″ (≧50% = +++)
322 (TLMTSLPAL; listed as Homo sapiens) [compound 322] | ″+++″ (≧50% = +++)
137 (TLVLTLPTV; listed as Homo sapiens) [compound 137] | ″++++″ (≧75% = ++++)
407 (YLMDLINFL; listed as Homo sapiens) [compound 407] | ″+++″ (≧50% = +++)
254 (TLLAFIMEL; listed as Homo sapiens) [compound 254] | ″+++″ (≧50% = +++)
224 (TLIDAQWVL; listed as Homo sapiens) [compound 224] | ″+++″ (≧50% = +++)
432 (TLIEESAKV; listed as Homo sapiens) [compound 432] | ″++″ (≧20% = ++)
484 (SLIEKVTQL; listed as Homo sapiens) [compound 484] | ″+++″ (≧50% = +++)
163 (ALDEMGDLLQL; listed as Homo sapiens) [compound 163] | ″+++″ (≧50% = +++)
330 (QLALKVEGV; listed as Homo sapiens) [compound 330] | ″+++″ (≧50% = +++)
583 (ILANDGVLLAA; listed as Homo sapiens) [compound 583] | ″+++″ (≧50% = +++)
194 (ALPLFVITV; listed as Homo sapiens) [compound 194] | ″+++″ (≧50% = +++)
485 (NVPDSFNEV; listed as Homo sapiens) [compound 485] | ″+++″ (≧50% = +++)
161 (ALLEGVNTV; listed as Homo sapiens) [compound 161] | ″+++″ (≧50% = +++)
541 (SMLEPVPEL; listed as Homo sapiens) [compound 541] | ″+++″ (≧50% = +++)
214 (FLLDLDPLLL; listed as Homo sapiens) [compound 214] | ″+++″ (≧50% = +++)
147 (SLLEAVSFL; listed as Homo sapiens) [compound 147] | ″+++″ (≧50% = +++)
63 (YLLPSGGSVTL; listed as Homo sapiens) [compound 63] | ″++″ (≧20% = ++)
280 (VLPDPEVLEAV; listed as Homo sapiens) [compound 280] | ″+++″ (≧50% = +++)
509 (FLFDTKPLIV; listed as Homo sapiens) [compound 509] | ″+++″ (≧50% = +++)
575 (YLISQVEGHQV; listed as Homo sapiens) [compound 575] | ″+++″ (≧50% = +++)
544 (LLWDVPAPSL; listed as Homo sapiens) [compound 544] | ″+++″ (≧50% = +++)
337 (HLLSELEAAPYL; listed as Homo sapiens) [compound 337] | ″++++″ (≧75% = ++++)

Substance | Peptide exchange
76 (ILIDSIYKV; listed as Homo sapiens) [compound 76] | ″+++″ (≧50% = +++)
263 (LLVSNLDFGV; listed as Homo sapiens) [compound 263] | ″+++″ (≧50% = +++)
132 (LLVEQPPLAGV; listed as Homo sapiens) [compound 132] | ″+++″ (≧50% = +++)
497 (GLLEKLTAI; listed as Homo sapiens) [compound 497] | ″+++″ (≧50% = +++)
565 (ALQETPTSV; listed as Homo sapiens) [compound 565] | ″++″ (≧20% = ++)
278 (QLLDVVLTI; listed as Homo sapiens) [compound 278] | ″++″ (≧20% = ++)
579 (NLMEMVAQL; listed as Homo sapiens) [compound 579] | ″++″ (≧20% = ++)
614 (LLLPDQPPYHL; listed as Homo sapiens) [compound 614] | ″+++″ (≧50% = +++)
325 (FIMPATVADATAV; listed as Homo sapiens) [compound 325] | ″+++″ (≧50% = +++)
46 (ILTEENIHL; listed as Homo sapiens) [compound 46] | ″+++″ (≧50% = +++)
451 (LLLLDTVTMQV; listed as Homo sapiens) [compound 451] | ″++″ (≧20% = ++)
226 (MLYVVPIYL; listed as Homo sapiens) [compound 226] | ″++″ (≧20% = ++)
616 (VLIDEVESL; listed as Homo sapiens) [compound 616] | ″+++″ (≧50% = +++)
237 (ALLEASGTLLL; listed as Homo sapiens) [compound 237] | ″++++″ (≧75% = ++++)
405 (ALYDVFLEV; listed as Homo sapiens) [compound 405] | ″++″ (≧20% = ++)
12 (SLWPDPMEV; listed as Homo sapiens) [compound 12] | ″+++″ (≧50% = +++)
331 (KVDTVWVNV; listed as Homo sapiens) [compound 331] | ″+++″ (≧50% = +++)
396 (ALLPDLPAL; listed as Homo sapiens) [compound 396] | ″+++″ (≧50% = +++)
258 (ELAERVPAI; listed as Homo sapiens) [compound 258] | ″++″ (≧20% = ++)
530 (VMYADIGGMDI; listed as Homo sapiens) [compound 530] | ″+++″ (≧50% = +++)
171 (LLLPLQILL; listed as Homo sapiens) [compound 171] | ″+++″ (≧50% = +++)
209 (KLIESKHEV; listed as Homo sapiens) [compound 209] | ″++″ (≧20% = ++)
298 (VMITKLVEV; listed as Homo sapiens) [compound 298] | ″+++″ (≧50% = +++)
403 (KLYDRILRV; listed as Homo sapiens) [compound 403] | ″++″ (≧20% = ++)
442 (GLLGGGGVLGV; listed as Homo sapiens) [compound 442] | ″+++″ (≧50% = +++)
262 (LLWGDLIWL; listed as Homo sapiens) [compound 262] | ″+++″ (≧50% = +++)

System: CD8+ T cells
Assay: In vitro T-cell priming (immunogenicity) with aAPCs loaded with peptide/MHC and anti-CD28, pMHC multimer readout
Format: cell-based, human
Settings: in vitro immunogenicity of HLA class I peptides; percentage of positive donors
From the text: In order to obtain information regarding the immunogenicity of the TUMAPs of the present invention, the inventors performed investigations using an in vitro T-cell priming assay based on repeated stimulations of CD8+ T cells with artificial antigen presenting cells (aAPCs) loaded with peptide/MHC complexes and anti-CD28 antibody.
In order to perform in vitro stimulations by artificial antigen presenting cells loaded with peptide-MHC complex (pMHC) and anti-CD28 antibody, the inventors first isolated CD8+ T cells from fresh HLA-A*02 leukapheresis products via positive selection using CD8 microbeads (Miltenyi Biotec, Bergisch-Gladbach, Germany) of healthy donors obtained from the University clinics Mannheim, Germany, after informed consent.
PBMCs and isolated CD8+ lymphocytes were incubated in T-cell medium (TCM) until use consisting of RPMI-Glutamax (Invitrogen, Karlsruhe, Germany) supplemented with 10% heat inactivated human AB serum (PAN-Biotech, Aidenbach, Germany), 100 U/ml Penicillin/100 μg/ml Streptomycin (Cambrex, Cologne, Germany), 1 mM sodium pyruvate (CC Pro, Oberdorla, Germany), 20 μg/ml Gentamycin (Cambrex). 2.5 ng/ml IL-7 (PromoCell, Heidelberg, Germany) and 10 U/ml IL-2 (Novartis Pharma, Nürnberg, Germany) were also added to the TCM at this step.
Generation of pMHC/anti-CD28 coated beads, T-cell stimulations and readout was performed in a highly defined in vitro system using four different pMHC molecules per stimulation condition and 8 different pMHC molecules per readout condition.
The purified co-stimulatory mouse IgG2a anti human CD28 Ab 9.3 (Jung et al., 1987) was chemically biotinylated using Sulfo-N-hydroxysuccinimidobiotin as recommended by the manufacturer (Perbio, Bonn, Germany). Beads used were 5.6 μm diameter streptavidin coated polystyrene particles (Bangs Laboratories, Illinois, USA).
pMHC used for positive and negative control stimulations were A*0201/MLA-001 (peptide […] (SEQ ID NO. 664) from modified Melan-A/MART-1) and A*0201/DDX5-001 ([…] from DDX5, SEQ ID NO. 665), respectively.
800.000 beads/200 μl were coated in 96-well plates in the presence of 4×12.5 ng different biotin-pMHC, washed and 600 ng biotin anti-CD28 were added subsequently in a volume of 200 μl. Stimulations were initiated in 96-well plates by co-incubating 1×10^6 CD8+ T cells with 2×10^5 washed coated beads in 200 μl TCM supplemented with 5 ng/ml IL-12 (PromoCell) for 3 days at 37° C. Half of the medium was then exchanged by fresh TCM supplemented with 80 U/ml IL-2 and incubating was continued for 4 days at 37° C. This stimulation cycle was performed for a total of three times. For the pMHC multimer readout using 8 different pMHC molecules per condition, a two-dimensional combinatorial coding approach was used as previously described (Andersen et al., 2012) with minor modifications encompassing coupling to 5 different fluorochromes. Finally, multimeric analyses were performed by staining the cells with Live/dead near IR dye (Invitrogen, Karlsruhe, Germany), CD8-FITC antibody clone SK1 (BD, Heidelberg, Germany) and fluorescent pMHC multimers. For analysis, a BD LSRII SORP cytometer equipped with appropriate lasers and filters was used. Peptide specific cells were calculated as percentage of total CD8+ cells. Evaluation of multimeric analysis was done using the FlowJo software (Tree Star, Oregon, USA). In vitro priming of specific multimer+CD8+ lymphocytes was detected by comparing to negative control stimulations.
Exemplary flow cytometry results after TUMAP-specific multimer staining for two peptides of the invention are shown in FIG. 3 together with corresponding negative controls.

Substance | donors
662 (KIQEILTQV; listed as Homo sapiens) [compound 662] | +++ (50%-69% = +++)
648 (LLWGNAIFL; listed as Homo sapiens) [compound 648] | +++ (50%-69% = +++)
652 (TLWYRAPEV; listed as Homo sapiens) [compound 652] | ++++ (> = 70% = ++++)
659 (ILFPDIIARA; listed as Homo sapiens) [compound 659] | +++ (50%-69% = +++)

Same assay, conditions: in vitro immunogenicity of HLA class I peptides; percentage of positive wells

Substance | wells
662 (KIQEILTQV; listed as Homo sapiens) [compound 662] | + (<20% = +)
652 (TLWYRAPEV; listed as Homo sapiens) [compound 652] | +++ (50%-69% = +++)
659 (ILFPDIIARA; listed as Homo sapiens) [compound 659] | + (<20% = +)
